System: plasma proteins
Assay: Plasma proteins modulated between baseline and day 28 in responders (CR, VGPR, PR; n = 19), Example 6 (Table 13)
Assay type: in vivo, human
Details: plasma protein (OLINK NPX); responders (CR, VGPR, PR; n = 19); itacitinib 200 mg or 300 mg QD with corticosteroids; day 28 vs baseline
In short: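 Longitudinal comparison, day 28 versus baseline, with steroid-naive (N=10) and steroid-refractory (N=18) patients combined. Proteins measured by OLINK proximity extension, log2 normalized protein expression. Differences tested by t tests, ANOVA, Pearson correlation, P<0.05 significant.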

Row | Molecule | Fold Change, Decreased Expression from Baseline to Day 28 | Fold Change, Increased Expression from Baseline to Day 28
1 | PRDX5 (protein, UniProt P30044 53-214, looked up) Peroxiredoxin-5, mitochondrial: MAPIKVGDAIPAVEVFEGEPGNKVNLAELFKGKKGVLFGVPGAFTPGCSKTHLPGFVEQAEALKAKGVQVVACLSVNDAFVTGEWGRAHKAEGKVRLLADPTGAFGKETDLLLDDSLVSIFGNRRLKRFSMVVQDGIVKALNVEPDGTGLTCSLAPNIISQL | −2.0131 | 
2 | hK11 (protein, UniProt Q9UBX7 54-282, looked up) Kallikrein-11: IIKGFECKPHSQPWQAALFEKTRLLCGATLIAPRWLLTAAHCLKPRYIVHLGQHNLQKEEGCEQTRTATESFPHPGFNNSLPNKDHRNDIMLVKMASPVSITWAVRPLTLSSRCVTAGTSCLISGWGSTSSPQLRLPHTLRCANITIIEHQKCENAYPGNITDTMVCASVQEGGKDSCQGDSGGPLVCNQSLQGIISWGQDPCAITRKPGVYTKVCKYVDWIQETMKNN |  | 1.2975
3 | DKKL1 (protein, UniProt Q9UK85 31-242, looked up) Dickkopf-like protein 1: APIHDADAQESSLGLTGLQSLLQGFSRLFLKGNLLRGIDSLFSAPMDFRGLPGNYHKEENQEHQLGNNTLSSHLQIDKMTDNKTGEVLISENVVASIQPAEGSFEGDLKVPRMEEKEALVPIQKATDSFHTELHPRVAFWIIKLPRRRSHQDALEGGHWLSEKRHRLQAIRDGLRKGTHKDVLEEGTESSSHSRLSPRKTHLLYILRPSRQL |  | 1.1495
4 | ST1A1 (protein, UniProt P50225 1-295, looked up) Sulfotransferase 1A1: MELIQDTSRPPLEYVKGVPLIKYFAEALGPLQSFQARPDDLLISTYPKSGTTWVSQILDMIYQGGDLEKCHRAPIFMRVPFLEFKAPGIPSGMETLKDTPAPRLLKTHLPLALLPQTLLDQKVKVVYVARNAKDVAVSYYHFYHMAKVHPEPGTWDSFLEKFMVGEVSYGSWYQHVQEWWELSRTHPVLYLFYEDMKENPKREIQKILEFVGRSLPEETVDFVVQHTSFKEMKKNPMTNYTTVPQEFMDHSISPFMRKGMAGDWKTTFTVAQNERFDADYAEKMAGCSLSFRSEL | −1.9523 | 
5 | GRAP2 (protein, UniProt O75791 1-330, looked up) GRB2-related adapter protein 2: MEAVAKFDFTASGEDELSFHTGDVLKILSNQEEWFKAELGSQEGYVPKNFIDIQFPKWFHEGLSRHQAENLLMGKEVGFFIIRASQSSPGDFSISVRHEDDVQHFKVMRDNKGNYFLWTEKFPSLNKLVDYYRTNSISRQKQIFLRDRTREDQGHRGNSLDRRSQGGPHLSGAVGEEIRPSMNRKLSDHPPTLPLQQHQHQPQPPQYAPAPQQLQQPPQQRYLQHHHFHQERRGGSLDINDGHCGTGLGSEMNAALMHRRHTDPVQLQAAGRVRWARALYDFEALEDDELGFHSGEVVEVLDSSNPSWWTGRLHNKLGLFPANYVAPMTR | −1.6468 | 
6 | TMPRSS5 (protein, UniProt Q9H3S3 1-457, looked up) Transmembrane protease serine …: MSLMLDDQPPMEAQYAEEGPGPGIFRAEPGDQQHPISQAVCWRSMRRGCAVLGALGLLAGAGVGSWLLVLYLCPAASQPISGTLQDEEITLSCSEASAEEALLPALPKTVSFRINSEDFLLEAQVRDQPRWLLVCHEGWSPALGLQICWSLGHLRLTHHKGVNLTDIKLNSSQEFAQLSPRLGGFLEEAWQPRNNCTSGQVVSLRCSECGARPLASRIVGGQSVAPGRWPWQASVALGFRHTCGGSVLAPRWVVTAAHCMHSFRLARLSSWRVHAGLVSHSAVRPHQGALVERIIPHPLYSAQNHDYDVALLRLQTALNFSDTVGAVCLPAKEQHFPKGSRCWVSGWGHTHPSHTYSSDMLQDTVVPLFSTQLCNSSCVYSGALTPRMLCAGYLDGRADACQGDSGGPLVCPDGDTWRLVGVVSWGRGCAEPNHPGVYAKVAEFLDWIHDTAQDSLL |  | 1.3307
7 | NEP (protein, UniProt P08473 2-750, looked up) Neprilysin: GKSESQMDITDINTPKPKKKQRWTPLEISLSVLVLLLTIIAVTMIALYATYDDGICKSSDCIKSAARLIQNMDATTEPCTDFFKYACGGWLKRNVIPETSSRYGNFDILRDELEVVLKDVLQEPKTEDIVAVQKAKALYRSCINESAIDSRGGEPLLKLLPDIYGWPVATENWEQKYGASWTAEKAIAQLNSKYGKKVLINLFVGTDDKNSVNHVIHIDQPRLGLPSRDYYECTGIYKEACTAYVDFMISVARLIRQEERLPIDENQLALEMNKVMELEKEIANATAKPEDRNDPMLLYNKMTLAQIQNNFSLEINGKPFSWLNFTNEIMSTVNISITNEEDVVVYAPEYLTKLKPILTKYSARDLQNLMSWRFIMDLVSSLSRTYKESRNAFRKALYGTTSETATWRRCANYVNGNMENAVGRLYVEAAFAGESKHVVEDLIAQIREVFIQTLDDLTWMDAETKKRAEEKALAIKERIGYPDDIVSNDNKLNNEYLELNYKEDEYFENIIQNLKFSQSKQLKKLREKVDKDEWISGAAVVNAFYSSGRNQIVFPAGILQPPFFSAQQSNSLNYGGIGMVIGHEITHGFDDNGRNFNKDGDLVDWWTQQSASNFKEQSQCMVYQYGNFSWDLAGGQHLNGINTLGENIADNGGLGQAYRAYQNYIKKNGEEKLLPGLDLNHKQLFFLNFAQVWCGTYRPEYAVNSIKTDVHSPGNFRIIGTLQNSAEFSEAFHCRKNSYMNPEKKCRVW |  | 1.8376
8 | TLT-2 (protein, UniProt Q5T2D2 19-321, looked up) Trem-like transcript 2 protein: GPSADSVYTKVRLLEGETLSVQCSYKGYKNRVEGKVWCKIRKKKCEPGFARVWVKGPRYLLQDDAQAKVVNITMVALKLQDSGRYWCMRNTSGILYPLMGFQLDVSPAPQTERNIPFTHLDNILKSGTVTTGQAPTSGPDAPFTTGVMVFTPGLITLPRLLASTRPASKTGYSFTATSTTSQGPRRTMGSQTVTASPSNARDSSAGPESISTKSGDLSTRSPTTGLCLTSRSLLNRLPSMPSIRHQDVYSTVLGVVLTLLVLMLIMVYGFWKKRHMASYSMCSDPSTRDPPGRPEPYVEVYLI | −1.8372 | 
9 | FOXO1 (protein, UniProt Q12778 1-655, looked up) Forkhead box protein O1: MAEAPQVVEIDPDFEPLPRPRSCTWPLPRPEFSQSNSATSSPAPSGSAAANPDAAAGLPSASAAAVSADFMSNLSLLEESEDFPQAPGSVAAAVAAAAAAAATGGLCGDFQGPEAGCLHPAPPQPPPPGPLSQHPPVPPAAAGPLAGQPRKSSSSRRNAWGNLSYADLITKAIESSAEKRLTLSQIYEWMVKSVPYFKDKGDSNSSAGWKNSIRHNLSLHSKFIRVQNEGTGKSSWWMLNPEGGKSGKSPRRRAASMDNNSKFAKSRSRAAKKKASLQSGQEGAGDSPGSQFSKWPASPGSHSNDDFDNWSTFRPRTSSNASTISGRLSPIMTEQDDLGEGDVHSMVYPPSAAKMASTLPSLSEISNPENMENLLDNLNLLSSPTSLTVSTQSSPGTMMQQTPCYSFAPPNTSLNSPSPNYQKYTYGQSSMSPLPQMPIQTLQDNKSSYGGMSQYNCAPGLLKELLTSDSPPHNDIMTPVDPGVAQPNSRVLGQNVMMGPNSVMSTYGSQASHNKMMNPSSHTHPGHAQQTSAVNGRPLPHTVSTMPHTSGMNRLTQVKTPVQVPLPHPMQMSALGGYSSVSSCNGYGRMGLLHQEKLPSDLDGMFIERLDCDMESIIRNDLMDGDTLDFNFDNVLPNQSFPHSVKTTTHSWVSG | −1.3557 | 
10 | IL2-RA (protein, UniProt P01589 22-272, looked up) Interleukin-2 receptor …: ELCDDDPPEIPHATFKAMAYKEGTMLNCECKRGFRRIKSGSLYMLCTGNSSHSSWDNQCQCTSSATRNTTKQVTPQPEEQKERKTTEMQSPMQPVDQASLPGHCREPPPWENEATERIYHFVVGQMVYYQCVQGYRALHRGPAESVCKMTHGKTRWTQPQLICTGEMETSQFPGEEKPQASPEGRPESETSCLVTTTDFQIQTEMAATMETSIFTTEYQVAVAGCVFLLISVLLLSGLTWQRRQRKSRRTI | −2.2452 | 
11 | SCGB3A1 (protein, UniProt Q96QR1 21-104, looked up) Secretoglobin family 3A …: FLVGSAKPVAQPVAALESAAEAGAGTLANPLGTLNPLKLLLSSLGIPVNHLIEGSQKCVAELGPQAVGAVKALKALLGALTVFG |  | 1.5691
